# Test results: US20090263395
# Where a chain is given by its changes, count along the chain named. Names and notes keep the numbering of the source.
# B1: A2282 protein, wild type (A2282V1, MELK), HA-tagged, immunoprecipitated from HEK 293 cells (protein)
# chain: MKDYDELLKYYELHETIGTGGFAKVKLACHILTGEMVAIKIMDKNTLGSDLPRIKTEIEALKNLRHQHICQLYHVLETANKIFMVLEYCPGGELFDYIISQDRLSEEETRVVFRQIVSAVAYVHSQGYAHRDLKPENLLFDEYHKLKLIDFGLCAKPKGNKDYHLQTCCGSLAYAAPELIQGKSYLGSEADVWSMGILLYVLMCGFLPFDDDNVMALYKKIMRGKYDVPKWLSPSSILLLQQMLQVDPKKRISMKNLLNHPWIMQDYNYPVEWQSKNPFIHLDDDCVTELSVHHRNNRQTMEDLISLWQYDHLTATYLLLLAKKARGKPVRLRLSSFSCGQASATPFTDIKSNNWSLEDVTASDKNYVAGLIDYDWCEDDLSTGAATPRTSQFTKYWTESNGVESKSLTPALCRTPANKLKNKENVYTPKSAVKNEEYFMFPEPKTPVNKNQHKREILTTPNRYTTPSKARNQCLKETPIKIPVNSTGTDKLMTGVISPERRCRSVELDLNQAHMEETPKRKGAKVFGSLERGLDKVITVLTRSKRKGSARDGPRRLKLHYNVTTTRLVNPDQLLNEIMSILPKKHVDFVQKGYTLKCQTQSDFGKVTMQFELEVCQLQKPDVVGIRRQRLKGDAWVYKRLVEDILSSCKV
# B2: A2282 protein T478A mutant, HA-tagged (protein)
# chain: B1 chain with T478A
# B3: A2282 protein D150A mutant, HA-tagged (protein)
# chain: B1 chain with D150A
# B4: A2282 protein T167A mutant, HA-tagged (protein)
# chain: B1 chain with T167A
# Target: Histone H1 (UPSTATE, Lake Placid, N.Y.)
row,Protein,"kinase activity (immune complex kinase assay, [gamma-32P]-ATP)"
1,B1,wild type and T478A proteins possessing intact kinase domain was observed phosphorylated Histone H1 in vitro
2,B2,wild type and T478A proteins possessing intact kinase domain was observed phosphorylated Histone H1 in vitro
3,B3,completely abolished in D150A protein
4,B4,This activity was severely compromised in T167A mutant
